The results in this text go back to the supplement of paper PMC5998384.

Data set [1] concerns HeLa Kyoto. Put plainly: solubility in G1/S (NP-40 vs SDS abundance) (log2 ratio); higher = more soluble. Particulars: cell cycle stage: G1/S.
The test system of data set [2] is HeLa Kyoto. As to the kind of experiment: melting temperature (median over replicates), in situ; higher = more thermally stable.
Data set [3] relates to HeLa Kyoto. Put plainly: solubility change mitosis vs G1/S (difference of NP-40 vs SDS log2 ratios) (log2 ratio difference); higher = more soluble in mitosis.
Data set [4] concerns HeLa Kyoto. Put plainly: thermal stability score vs G1/S (z-score of summed log2 fold changes over temperatures); higher = more thermally stable than in G1/S.
Where [5] appears, read: cell cycle stage: early G1 (4.5 h after nocodazole release).
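Wherever melting temperature (median over replicates), in situ is given: HeLa Kyoto cells synchronized by double thymidine or nocodazole block, proteins quantified by TMT10plex mass spectrometry, three independent biological replicates.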
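Wherever solubility change mitosis vs G1/S (difference of NP-40 vs SDS log2 ratios) is given: synchronized HeLa Kyoto cells (double thymidine block for G1/S, nocodazole release for mitosis), protein amounts in NP-40 versus SDS lysates quantified by mass spectrometry, three biological replicates.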
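Wherever solubility in G1/S (NP-40 vs SDS abundance) is given: HeLa Kyoto cells arrested at G1/S by double thymidine block, proteins quantified by TMT10plex mass spectrometry in mild NP-40 versus SDS extracts, three biological replicates.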
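Wherever thermal stability score vs G1/S (z-score of summed log2 fold changes over temperatures) is given: synchronized HeLa Kyoto cells, proteins quantified by TMT10plex mass spectrometry, three biological replicates, mitosis taken 0.5 h after nocodazole release, G1/S directly after double thymidine block.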

Consider “MFGTLLLYCFFLATVPALAETGGERQLSPEKSEIWGPGLKADVVLPARYFYIQAVDTSGNKFTSSPGEKVFQVKVSAPEEQFTRVGVQVLDRKDGSFIVRYRMYASYKNLKVEIKFQGQHVAKSPYILKGPVYHENCDCPLQDSAAWLREMNCPETIAQIQRDLAHFPAVDPEKIAVEIPKRFGQRQSLCHYTLKDNKVYIKTHGEHVGFRIFMDAILLSLTRKVKMPDVELFVNLGDWPLEKKKSNSNIHPIFSWCGSTDSKDIVMPTYDLTDSVLETMGRVSLDMMSVQANTGPPWESKNSTAVWRGRDSRKERLELVKLSRKHPELIDAAFTNFFFFKHDENLYGPIVKHISFFDFFKHKYQINIDGTVAAYRLPYLLVGDSVVLKQDSIYYEHFYNELQPWKHYIPVKSNLSDLLEKLKWAKDHDEEAKKIAKAGQEFARNNLMGDDIFCYYFKLFQEYANLQVSEPQIREGMKRVEPQTEDDLFPCTCHRKKTKDEL [KDELC1]”, for which, in data set [1], the “solubility in G1/S (log2)” value came to 0.0317. The results for the melting temperature in data set [2] (cell cycle stage: G1/S) and in data set [2] (cell cycle stage: mitosis) were 53.5 °C and 54 °C, respectively. Further, the “solubility change mitosis (log2)” value in data set [3] is -0.102. Further, the thermal stability score in data set [4] (setting [5]) worked out at 2.25; in data set [4] (cell cycle stage: mitosis), 2.83.
Turning to “MFPAAPSPRTPGTGSRRGPLAGLGPGSTPRTASRKGLPLGSAVSSPVLFSPVGRRSSLSSRGTPTRMFPHHSITESVNYDVKTFGSSLPVKVMEALTLAEVDDQLTINIDEGGWACLVCKEKLIIWKIALSPITKLSVCKELQLPPSDFHWSADLVALSYSSPSGEAHSTQAVAVMVATREGSIRYWPSLAGEDTYTEAFVDSGGDKTYSFLTAVQGGSFILSSSGSQLIRLIPESSGKIHQHILPQGQGMLSGIGRKVSSLFGILSPSSDLTLSSVLWDRERSSFYSLTSSNISKWELDDSSEKHAYSWDINRALKENITDAIWGSESNYEAIKEGVNIRYLDLKQNCDGLVILAAAWHSADNPCLIYYSLITIEDNGCQMSDAVTVEVTQYNPPFQSEDLILCQLTVPNFSNQTAYLYNESAVYVCSTGTGKFSLPQEKIVFNAQGDSVLGAGACGGVPIIFSRNSGLVSITSRENVSILAEDLEGSLASSVAGPNSESMIFETTTKNETIAQEDKIKLLKAAFLQYCRKDLGHAQMVVDELFSSHSDLDSDSELDRAVTQISVDLMDDYPASDPRWAESVPEEAPGFSNTSLIILHQLEDKMKAHSFLMDFIHQVGLFGRLGSFPVRGTPMATRLLLCEHAEKLSAAIVLKNHHSRLSDLVNTAILIALNKREYEIPSNLTPADVFFREVSQVDTICECLLEHEEQVLRDAPMDSIEWAEVVINVNNILKDMLQAASHYRQNRNSLYRREESLEKEPEYVPWTATSGPGGIRTVIIRQHEIVLKVAYPQADSNLRNIVTEQLVALIDCFLDGYVSQLKSVDKSSNRERYDNLEMEYLQKRSDLLSPLLSLGQYLWAASLAEKYCDFDILVQMCEQTDNQSRLQRYMTQFADQNFSDFLFRWYLEKGKRGKLLSQPISQHGQLANFLQAHEHLSWLHEINSQELEKAHATLLGLANMETRYFAKKKTLLGLSKLAALASDFSEDMLQEKIEEMAEQERFLLHQETLPEQLLAEKQLNLSAMPVLTAPQLIGLYICEENRRANEYDFKKALDLLEYIDEEEDININDLKLEILCKALQRDNWSSSDGKDDPIEVSKDSIFVKILQKLLKDGIQLSEYLPEVKDLLQADQLGSLKSNPYFEFVLKANYEYYVQGQI [NUP133]”, the “solubility in G1/S (log2)” value in data set [1] was -0.454. In addition, the values for the melting temperature in data set [2] (cell cycle stage: G1/S) and in data set [2] (cell cycle stage: mitosis) were 51.9 °C and 49.6 °C, respectively. In data set [3], the “solubility change mitosis (log2)” value was 0.284. Also, the thermal stability score in data set [4] (setting [5]) is -2.95; in data set [4] (cell cycle stage: mitosis), -2.97.
In the case of “MFPFYSCWRTGLLLLLLAVAVRESWQTEEKTCDLVGEKGKESEKELALVKRLKPLFNKSFESTVGQGSDTYIYIFRVCREAGNHTSGAGLVQINKSNGKETVVGRLNETHIFNGSNWIMLIYKGGDEYDNHCGKEQRRAVVMISCNRHTLADNFNPVSEERGKVQDCFYLFEMDSSLACSPEISHLSVGSILLVTFASLVAVYVVGGFLYQRLVVGAKGMEQFPHLAFWQDLGNLVADGCDFVCRSKPRNVPAAYRGVGDDQLGEESEERDDHLLPM [M6PR]”, the “solubility in G1/S (log2)” value in data set [1] was determined as 0.0483. In addition, the melting temperature in data set [2] (cell cycle stage: G1/S) amounted to 60.3 °C; in data set [2] (cell cycle stage: mitosis) it was 59.1 °C. Further, the “solubility change mitosis (log2)” value in data set [3] is -0.128. In addition, the thermal stability score is -1.67 in data set [4] (setting [5]) and -2.67 in data set [4] (cell cycle stage: mitosis).
With “MFQFHAGSWESWCCCCLIPADRPWDRGQHWQLEMADTRSVHETRFEAAVKVIQSLPKNGSFQPTNEMMLKFYSFYKQATEGPCKLSRPGFWDPIGRYKWDAWSSLGDMTKEEAMIAYVEEMKKIIETMPMTEKVEELLRVIGPFYEIVEDKKSGRSSDITSVRLEKISKCLEDLGNVLTSTPNAKTVNGKAESSDSGAESEEEEAQEEVKGAEQSDNDKKMMKKSADHKNLEVIVTNGYDKDGFVQDIQNDIHASSSLNGRSTEEVKPIDENLGQTGKSAVCIHQDINDDHVEDVTGIQHLTSDSDSEVYCDSMEQFGQEESLDSFTSNNGPFQYYLGGHSSQPMENSGFREDIQVPPGNGNIGNMQVVAVEGKGEVKHGGEDGRNNSGAPHREKRGGETDEFSNVRRGRGHRMQHLSEGTKGRQVGSGGDGERWGSDRGSRGSLNEQIALVLMRLQEDMQNVLQRLQKLETLTALQAKSSTSTLQTAPQPTSQRPSWWPFEMSPGVLTFAIIWPFIAQWLVYLYYQRRRRKLN [ACBD5]”, in data set [1], the “solubility in G1/S (log2)” value is 0.0763. The melting temperature turned out to be 47.3 °C in data set [2] (cell cycle stage: G1/S) and 49.4 °C in data set [2] (cell cycle stage: mitosis). Further, the “solubility change mitosis (log2)” value in data set [3] is -0.129. In addition, the thermal stability score was found to be 2.16 in data set [4] (setting [5]) and 3.53 in data set [4] (cell cycle stage: mitosis).
Regarding “MFQLPVNNLGSLRKARKTVKKILSDIGLEYCKEHIEDFKQFEPNDFYLKNTTWEDVGLWDPSLTKNQDYRTKPFCCSACPFSSKFFSAYKSHFRNVHSEDFENRILLNCPYCTFNADKKTLETHIKIFHAPNASAPSSSLSTFKDKNKNDGLKPKQADSVEQAVYYCKKCTYRDPLYEIVRKHIYREHFQHVAAPYIAKAGEKSLNGAVPLGSNAREESSIHCKRCLFMPKSYEALVQHVIEDHERIGYQVTAMIGHTNVVVPRSKPLMLIAPKPQDKKSMGLPPRIGSLASGNVRSLPSQQMVNRLSIPKPNLNSTGVNMMSSVHLQQNNYGVKSVGQGYSVGQSMRLGLGGNAPVSIPQQSQSVKQLLPSGNGRSYGLGSEQRSQAPARYSLQSANASSLSSGQLKSPSLSQSQASRVLGQSSSKPAAAATGPPPGNTSSTQKWKICTICNELFPENVYSVHFEKEHKAEKVPAVANYIMKIHNFTSKCLYCNRYLPTDTLLNHMLIHGLSCPYCRSTFNDVEKMAAHMRMVHIDEEMGPKTDSTLSFDLTLQQGSHTNIHLLVTTYNLRDAPAESVAYHAQNNPPVPPKPQPKVQEKADIPVKSSPQAAVPYKKDVGKTLCPLCFSILKGPISDALAHHLRERHQVIQTVHPVEKKLTYKCIHCLGVYTSNMTASTITLHLVHCRGVGKTQNGQDKTNAPSRLNQSPSLAPVKRTYEQMEFPLLKKRKLDDDSDSPSFFEEKPEEPVVLALDPKGHEDDSYEARKSFLTKYFNKQPYPTRREIEKLAASLWLWKSDIASHFSNKRKKCVRDCEKYKPGVLLGFNMKELNKVKHEMDFDAEWLFENHDEKDSRVNASKTADKKLNLGKEDDSSSDSFENLEEESNESGSPFDPVFEVEPKISNDNPEEHVLKVIPEDASESEEKLDQKEDGSKYETIHLTEEPTKLMHNASDSEVDQDDVVEWKDGASPSESGPGSQQVSDFEDNTCEMKPGTWSDESSQSEDARSSKPAAKKKATMQGDREQLKWKNSSYGKVEGFWSKDQSQWKNASENDERLSNPQIEWQNSTIDSEDGEQFDNMTDGVAEPMHGSLAGVKLSSQQA [ADNP]”, the “solubility in G1/S (log2)” value in data set [1] was -0.566. The figures for the melting temperature in data set [2] (cell cycle stage: G1/S) and in data set [2] (cell cycle stage: mitosis) were 46.7 °C and 49.2 °C, respectively. Further, the “solubility change mitosis (log2)” value in data set [3] amounted to 0.303. The thermal stability score was determined as 1.91 in data set [4] (setting [5]) and 4.53 in data set [4] (cell cycle stage: mitosis).
In the case of “MFRKARRVNVRKRNDSEEEERERDEEQEPPPLLPPPGTGEEAGPGGGDRAPGGESLLGPGPSPPSALTPGLGAEAGGGFPGGAEPGNGLKPRKRPRENKEVPRASLLSFQDEEEENEEVFKVKKSSYSKKIVKLLKKEYKEDLEKSKIKTELNSSAESEQPLDKTGHVKDTNQEDGVIISEHGEDEMDMESEKEEEKPKTGGAFSNALSSLNVLRPGEIPDAAFIHAARKKRQMARELGDFTPHDNEPGKGRLVREDENDASDDEDDDEKRRIVFSVKEKSQRQKIAEEIGIEGSDDDALVTGEQDEELSRWEQEQIRKGINIPQVQASQPAEVNMYYQNTYQTMPYGSSYGIPYSYTAYGSSDAKSQKTDNTVPFKTPSNEMTPVTIDLVKKQLKDRLDSMKELHKTNRQQHEKHLQSRVDSTRAIERLEGSSGGIGERYKFLQEMRGYVQDLLECFSEKVPLINELESAIHQLYKQRASRLVQRRQDDIKDESSEFSSHSNKALMAPNLDSFGRDRALYQEHAKRRIAEREARRTRRRQAREQTGKMADHLEGLSSDDEETSTDITNFNLEKDRISKESGKVFEDVLESFYSIDCIKSQFEAWRSKYYTSYKDAYIGLCLPKLFNPLIRLQLLTWTPLEAKCRDFENMLWFESLLFYGCEEREQEKDDVDVALLPTIVEKVILPKLTVIAENMWDPFSTTQTSRMVGITLKLINGYPSVVNAENKNTQVYLKALLLRMRRTLDDDVFMPLYPKNVLENKNSGPYLFFQRQFWSSVKLLGNFLQWYGIFSNKTLQELSIDGLLNRYILMAFQNSEYGDDSIKKAQNVINCFPKQWFMNLKGERTISQLENFCRYLVHLADTIYRNSIGCSDVEKRNARENIKQIVKLLASVRALDHAMSVASDHNVKEFKSLIEGK [PAXBP1]”, in data set [1], the “solubility in G1/S (log2)” value was -0.54. The figures for the melting temperature in data set [2] (cell cycle stage: G1/S) and in data set [2] (cell cycle stage: mitosis) were 48.6 °C and 49 °C, respectively. Besides, in data set [3], the “solubility change mitosis (log2)” value was determined as 0.153. For the same sequence, the thermal stability score came to 0.626 in data set [4] (setting [5]) and 1.5 in data set [4] (cell cycle stage: mitosis).
